What was measured:
[1] = molecular target: MERTK (UniProt Q12866); assay: phosphorylation enrichment, bacterial display (enrichment ratio); higher = better substrate or ligand; peptides without Tyr show the background
[2] = tested on: c-Abl (mouse); assay: as above
[3] = molecular target: Hck (UniProt P08631); assay: as above
[4] = molecular target: Fes (UniProt P07332); assay: as above
[5] = molecular target: EPHB2 (UniProt P29323); assay: as above
[6] = molecular target: EPHB1 (UniProt P54762); assay: as above
Chain of EPHB1 (P54762 whole entry, looked up): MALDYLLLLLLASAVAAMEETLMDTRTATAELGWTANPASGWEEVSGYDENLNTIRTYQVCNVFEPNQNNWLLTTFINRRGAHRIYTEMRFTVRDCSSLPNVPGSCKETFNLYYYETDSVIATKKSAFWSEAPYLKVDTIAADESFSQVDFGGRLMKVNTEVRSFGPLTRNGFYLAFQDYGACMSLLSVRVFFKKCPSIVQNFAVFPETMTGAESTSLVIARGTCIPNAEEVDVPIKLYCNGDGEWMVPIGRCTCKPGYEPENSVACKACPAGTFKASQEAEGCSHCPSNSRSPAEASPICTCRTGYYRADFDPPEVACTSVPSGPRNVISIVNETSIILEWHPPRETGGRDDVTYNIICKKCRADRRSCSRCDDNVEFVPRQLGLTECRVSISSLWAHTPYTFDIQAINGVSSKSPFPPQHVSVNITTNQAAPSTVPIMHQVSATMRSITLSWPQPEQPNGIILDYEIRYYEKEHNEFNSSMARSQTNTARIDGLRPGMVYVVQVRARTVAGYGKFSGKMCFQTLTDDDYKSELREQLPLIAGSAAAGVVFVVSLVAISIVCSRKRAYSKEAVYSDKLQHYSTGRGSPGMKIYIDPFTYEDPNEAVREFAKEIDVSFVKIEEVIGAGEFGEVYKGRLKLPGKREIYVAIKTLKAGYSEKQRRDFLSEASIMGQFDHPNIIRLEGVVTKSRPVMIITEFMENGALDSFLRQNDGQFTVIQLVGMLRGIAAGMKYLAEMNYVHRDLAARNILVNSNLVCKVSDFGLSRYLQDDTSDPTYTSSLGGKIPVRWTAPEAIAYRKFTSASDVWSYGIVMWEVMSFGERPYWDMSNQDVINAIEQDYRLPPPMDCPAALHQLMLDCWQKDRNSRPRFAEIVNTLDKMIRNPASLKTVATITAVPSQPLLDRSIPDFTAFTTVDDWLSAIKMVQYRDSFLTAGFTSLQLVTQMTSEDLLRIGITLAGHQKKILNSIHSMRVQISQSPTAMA

[7] = tested on: AncSZ; assay: as above
[8] = molecular target: FGFR3 (UniProt P22607); assay: as above
Chain of FGFR3 (P22607 whole entry, looked up): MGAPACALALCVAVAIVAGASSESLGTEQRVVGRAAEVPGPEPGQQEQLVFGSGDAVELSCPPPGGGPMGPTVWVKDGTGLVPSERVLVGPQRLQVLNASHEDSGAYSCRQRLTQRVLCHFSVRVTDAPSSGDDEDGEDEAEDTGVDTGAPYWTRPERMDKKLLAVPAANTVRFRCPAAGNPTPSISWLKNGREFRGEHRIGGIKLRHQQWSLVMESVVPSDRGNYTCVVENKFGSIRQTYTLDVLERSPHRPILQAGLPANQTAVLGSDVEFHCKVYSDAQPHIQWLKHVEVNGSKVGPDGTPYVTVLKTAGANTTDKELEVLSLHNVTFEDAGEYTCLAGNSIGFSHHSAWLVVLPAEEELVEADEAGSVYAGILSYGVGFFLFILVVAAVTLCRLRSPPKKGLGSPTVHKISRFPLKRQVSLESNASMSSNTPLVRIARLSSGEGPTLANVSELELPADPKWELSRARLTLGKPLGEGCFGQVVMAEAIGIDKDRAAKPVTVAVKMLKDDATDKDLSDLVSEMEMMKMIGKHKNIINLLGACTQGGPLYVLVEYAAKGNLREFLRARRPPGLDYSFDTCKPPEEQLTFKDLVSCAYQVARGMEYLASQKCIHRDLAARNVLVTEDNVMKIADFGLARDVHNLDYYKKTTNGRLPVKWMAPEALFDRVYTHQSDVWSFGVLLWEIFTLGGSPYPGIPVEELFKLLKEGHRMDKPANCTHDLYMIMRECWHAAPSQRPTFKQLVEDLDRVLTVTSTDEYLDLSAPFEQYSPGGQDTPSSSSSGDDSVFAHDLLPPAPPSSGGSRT

[9] = molecular target: FGFR1 (UniProt P11362); assay: as above
Chain of FGFR1 (P11362 whole entry, looked up): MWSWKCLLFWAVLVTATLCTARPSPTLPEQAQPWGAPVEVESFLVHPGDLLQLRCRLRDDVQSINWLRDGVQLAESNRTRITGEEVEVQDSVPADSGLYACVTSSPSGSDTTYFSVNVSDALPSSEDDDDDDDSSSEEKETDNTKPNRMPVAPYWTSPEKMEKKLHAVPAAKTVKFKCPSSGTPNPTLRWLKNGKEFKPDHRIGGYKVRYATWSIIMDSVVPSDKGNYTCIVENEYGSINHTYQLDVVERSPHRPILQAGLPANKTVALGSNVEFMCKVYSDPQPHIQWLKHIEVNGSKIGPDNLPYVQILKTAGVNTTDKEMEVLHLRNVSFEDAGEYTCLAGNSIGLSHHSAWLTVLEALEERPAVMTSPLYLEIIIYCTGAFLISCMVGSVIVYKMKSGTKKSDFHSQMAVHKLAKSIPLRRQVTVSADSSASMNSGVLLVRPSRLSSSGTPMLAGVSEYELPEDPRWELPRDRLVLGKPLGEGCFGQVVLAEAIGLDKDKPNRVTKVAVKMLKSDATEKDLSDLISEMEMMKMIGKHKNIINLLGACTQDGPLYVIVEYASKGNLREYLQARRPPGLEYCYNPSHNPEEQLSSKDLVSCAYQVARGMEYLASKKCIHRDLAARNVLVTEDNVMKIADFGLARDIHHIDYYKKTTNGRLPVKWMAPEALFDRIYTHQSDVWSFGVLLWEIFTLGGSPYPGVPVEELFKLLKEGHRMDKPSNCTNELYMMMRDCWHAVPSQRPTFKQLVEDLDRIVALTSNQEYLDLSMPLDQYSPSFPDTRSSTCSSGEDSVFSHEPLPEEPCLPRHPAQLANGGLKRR

[10] = tested on: Fer (mouse); assay: as above
[11] = tested on: c-Src; assay: as above
[12] = molecular target: Jak2 (UniProt O60674); assay: as above
[13] = molecular target: Fyn (UniProt P06241); assay: as above
[14] = molecular target: SHP2-C SH2; assay: SH2 binding enrichment of the phosphorylated peptide, bacterial display (enrichment ratio); higher = better substrate or ligand; peptides without Tyr show the background
[15] = molecular target: Grb2 SH2 (UniProt P62993); assay: as above
Chain of Grb2 SH2 (P62993 whole entry, looked up): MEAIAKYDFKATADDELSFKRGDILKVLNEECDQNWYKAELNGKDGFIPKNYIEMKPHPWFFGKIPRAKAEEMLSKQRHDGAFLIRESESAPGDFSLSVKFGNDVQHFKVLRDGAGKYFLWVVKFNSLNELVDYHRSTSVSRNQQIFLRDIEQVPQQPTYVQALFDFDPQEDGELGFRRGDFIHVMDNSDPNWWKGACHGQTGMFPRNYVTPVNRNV

[16] = molecular target: c-Src SH2; assay: as above
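For SH2 binding enrichment of the phosphorylated peptide, bacterial display in this document: peptide library displayed on the E. coli surface as eCPX fusions, selected cells deep-sequenced, score is each peptide's frequency after selection divided by its frequency in the input.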
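For phosphorylation enrichment, bacterial display in this document: 11-residue human phosphosite peptides and single-mutation variants displayed on the E. coli surface, counted by deep sequencing, each peptide's frequency after selection divided by its frequency in the unselected input library; frequency after pTyr selection over input frequency; kinase dosed for 20-30% of maximal phosphorylation in three min.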

Chain of EPHB2 (P29323 whole entry, looked up): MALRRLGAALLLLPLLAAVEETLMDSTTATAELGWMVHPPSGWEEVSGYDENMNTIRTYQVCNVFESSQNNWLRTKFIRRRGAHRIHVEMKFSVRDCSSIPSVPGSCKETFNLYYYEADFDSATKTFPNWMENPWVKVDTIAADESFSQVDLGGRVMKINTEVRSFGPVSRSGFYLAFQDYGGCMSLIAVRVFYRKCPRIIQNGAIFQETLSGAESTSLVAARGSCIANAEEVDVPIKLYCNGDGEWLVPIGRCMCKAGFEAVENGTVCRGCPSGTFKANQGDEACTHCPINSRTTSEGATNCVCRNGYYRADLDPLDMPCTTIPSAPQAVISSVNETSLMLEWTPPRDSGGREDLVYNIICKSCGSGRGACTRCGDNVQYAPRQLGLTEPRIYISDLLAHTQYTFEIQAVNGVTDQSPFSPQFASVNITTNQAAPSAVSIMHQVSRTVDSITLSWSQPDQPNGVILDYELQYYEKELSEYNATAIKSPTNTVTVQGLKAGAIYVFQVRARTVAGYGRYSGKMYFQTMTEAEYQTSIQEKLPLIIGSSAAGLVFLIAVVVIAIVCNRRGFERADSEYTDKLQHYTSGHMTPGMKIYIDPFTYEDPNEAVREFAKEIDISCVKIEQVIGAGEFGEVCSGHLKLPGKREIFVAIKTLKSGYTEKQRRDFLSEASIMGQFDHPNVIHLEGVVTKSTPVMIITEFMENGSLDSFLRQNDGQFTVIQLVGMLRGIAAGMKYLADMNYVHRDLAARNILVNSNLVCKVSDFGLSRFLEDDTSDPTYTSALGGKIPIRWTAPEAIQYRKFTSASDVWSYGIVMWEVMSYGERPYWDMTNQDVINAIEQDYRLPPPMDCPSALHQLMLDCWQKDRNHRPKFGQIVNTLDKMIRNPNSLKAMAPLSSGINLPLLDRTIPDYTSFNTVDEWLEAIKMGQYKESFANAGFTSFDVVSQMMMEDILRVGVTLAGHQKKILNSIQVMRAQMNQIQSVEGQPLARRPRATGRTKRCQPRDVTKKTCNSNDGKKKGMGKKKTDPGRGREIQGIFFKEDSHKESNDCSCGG
Chain of MERTK (Q12866 whole entry, looked up): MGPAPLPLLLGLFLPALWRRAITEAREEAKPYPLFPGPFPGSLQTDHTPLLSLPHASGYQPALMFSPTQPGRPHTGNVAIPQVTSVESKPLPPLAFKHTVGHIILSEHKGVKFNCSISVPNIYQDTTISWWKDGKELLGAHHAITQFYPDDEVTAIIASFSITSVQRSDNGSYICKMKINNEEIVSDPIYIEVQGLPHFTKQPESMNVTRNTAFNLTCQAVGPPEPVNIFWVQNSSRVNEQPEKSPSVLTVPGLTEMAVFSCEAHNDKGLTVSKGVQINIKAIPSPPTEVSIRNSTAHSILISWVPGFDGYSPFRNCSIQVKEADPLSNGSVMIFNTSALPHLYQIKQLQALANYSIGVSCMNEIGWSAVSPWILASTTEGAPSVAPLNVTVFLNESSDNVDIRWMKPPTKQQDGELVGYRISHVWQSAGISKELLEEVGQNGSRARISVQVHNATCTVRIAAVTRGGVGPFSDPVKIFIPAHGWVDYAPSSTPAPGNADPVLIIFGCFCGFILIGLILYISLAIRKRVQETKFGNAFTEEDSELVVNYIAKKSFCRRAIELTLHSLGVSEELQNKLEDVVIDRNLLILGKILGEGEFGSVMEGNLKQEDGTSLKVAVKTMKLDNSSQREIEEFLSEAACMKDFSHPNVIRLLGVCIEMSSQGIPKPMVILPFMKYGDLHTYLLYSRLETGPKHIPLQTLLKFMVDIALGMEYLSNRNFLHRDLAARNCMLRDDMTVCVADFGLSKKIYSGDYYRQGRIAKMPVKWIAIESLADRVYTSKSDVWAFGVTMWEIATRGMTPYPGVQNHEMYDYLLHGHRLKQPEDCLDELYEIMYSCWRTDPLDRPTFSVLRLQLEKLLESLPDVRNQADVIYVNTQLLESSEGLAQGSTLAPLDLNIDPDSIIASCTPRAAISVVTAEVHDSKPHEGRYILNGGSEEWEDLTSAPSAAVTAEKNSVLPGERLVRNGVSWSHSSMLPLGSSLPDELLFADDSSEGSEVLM

Sequence | phosphorylation enrichment [1] | phosphorylation enrichment [2] | phosphorylation enrichment [3] | phosphorylation enrichment [4] | phosphorylation enrichment [5] | phosphorylation enrichment [6] | phosphorylation enrichment [7] | phosphorylation enrichment [8] | phosphorylation enrichment [9] | phosphorylation enrichment [10] | phosphorylation enrichment [11] | phosphorylation enrichment [12] | phosphorylation enrichment [13] | SH2 binding enrichment [14] | SH2 binding enrichment [15] | SH2 binding enrichment [16]
SSRKEYFIGGG [GYPC_Y126] | 0.309 | 0.429 | 0.486 | 0.673 | 0.317 | 0.423 | 0.482 | 0.478 | 0.532 | 0.431 | 0.496 | 0.519 | 0.603 | 0.677 | 0.703 | 0.63
IHADICRWFNI [MARS1_Y344_Y344C] | 0.356 | 0.697 | 0.497 | 1.18 | 0.546 | 0.639 | 0.962 | 0.675 | 0.413 | 0.464 | 0.334 | 0.809 | 0.395 | 0.633 | 0.779 | 0.526
RAFRHYLLKQK [SCN2A_Y1919_R1918H_YF] | 0.97 | 1.48 | 1.28 | 1.59 | 1.67 | 0.793 | 1.16 | 1.68 | 0.955 | 1.49 | 0.907 | 0.912 | 1.16 | 0.439 | 0.939 | 0.468
WDSSGYWTPEE [PAPPA2_Y908_C903W] | 0.502 | 0.672 | 0.449 | 1.08 | 0.533 | 0.521 | 1.41 | 0.87 | 0.855 | 0.569 | 0.453 | 1.28 | 0.53 | 2.08 | 1.2 | 36.9
TDGIAYEFRVI | 0.495 | 0.854 | 0.655 | 1.34 | 0.603 | 0.659 | 1.46 | 0.852 | 0.507 | 0.843 | 0.527 | 1.32 | 0.514 | 0.642 | 0.753 | 0.47
KNNDGYTDYAE [MCFD2_Y135_I136T] | 0.458 | 0.85 | 0.461 | 1 | 0.57 | 0.475 | 0.941 | 0.597 | 0.515 | 0.381 | 0.383 | 0.831 | 0.463 | 0.588 | 0.766 | 1.79
KEAALYPHLPP [SQSTM1_Y383] | 0.391 | 0.669 | 0.362 | 0.796 | 0.373 | 0.414 | 0.67 | 0.649 | 0.459 | 0.42 | 0.48 | 1.04 | 0.391 | 0.708 | 0.763 | 0.474
PSAEGYQDVRD [ABLIM1_Y439] | 0.348 | 0.688 | 0.545 | 1.08 | 0.649 | 0.656 | 1.15 | 0.699 | 0.571 | 0.634 | 0.492 | 0.873 | 0.689 | 0.621 | 0.812 | 3.8
SSEFHCVGGFF [CTSC_Y347_Y347C_YF] | 0.412 | 0.735 | 0.499 | 1.05 | 0.5 | 0.564 | 0.997 | 0.619 | 0.466 | 0.521 | 0.458 | 0.858 | 0.44 | 0.64 | 0.883 | 0.373
EVEPTYVVLFD [ERCC4_Y577_R576T_YF] | 3.5 | 1.22 | 3.99 | 1.21 | 14.1 | 11.1 | 1.51 | 3.65 | 5.46 | 1.08 | 5.25 | 1.26 | 6.46 | 0.521 | 0.749 | 0.51
EVDETYVPKEF [ALB_Y521] | 0.491 | 0.889 | 0.668 | 1.58 | 0.64 | 0.613 | 1.22 | 0.791 | 0.589 | 0.605 | 0.595 | 1.19 | 0.517 | 0.651 | 0.881 | 0.498
WQQQSYLASGI [CTNNB1_Y30_D32A] | 0.411 | 0.686 | 0.447 | 0.754 | 0.51 | 0.532 | 0.642 | 0.533 | 0.463 | 0.442 | 0.5 | 0.638 | 0.487 | 0.588 | 0.822 | 0.52
ISTAGYSFPEL [EDAR_Y406_I408F] | 0.698 | 0.737 | 0.461 | 0.878 | 0.523 | 0.526 | 0.886 | 0.532 | 0.457 | 0.425 | 0.487 | 1.03 | 0.437 | 0.957 | 0.854 | 6.7
QDRTFYESVRT [SPEN_Y633_YF] | 1.04 | 0.717 | 2.43 | 1.04 | 0.579 | 0.74 | 1.1 | 0.686 | 0.529 | 8.88 | 1.29 | 0.564 | 1.21 | 2.39 | 0.816 | 1.97
PRPAGYPSTVS [CACNA1C_Y1832] | 0.363 | 0.653 | 0.251 | 0.493 | 0.413 | 0.327 | 0.458 | 0.446 | 0.333 | 0.331 | 0.735 | 0.55 | 0.43 | 0.621 | 1 | 0.484
RAIGHYSATSK [FAM120A_Y328_Y327H] | 0.757 | 0.777 | 0.942 | 0.97 | 0.819 | 0.684 | 0.964 | 0.892 | 0.576 | 0.542 | 0.665 | 0.665 | 0.522 | 0.81 | 0.702 | 0.619
